{"source": "patent US20180185504A1", "about": "(Regeneron, published 2018)", "key": {"[1]": {"biological_target": "T1, human PRLR construct with an HA tag on HEK293/hPRLR cells (human, UniProt P16471 25-622)", "T1 sequence": "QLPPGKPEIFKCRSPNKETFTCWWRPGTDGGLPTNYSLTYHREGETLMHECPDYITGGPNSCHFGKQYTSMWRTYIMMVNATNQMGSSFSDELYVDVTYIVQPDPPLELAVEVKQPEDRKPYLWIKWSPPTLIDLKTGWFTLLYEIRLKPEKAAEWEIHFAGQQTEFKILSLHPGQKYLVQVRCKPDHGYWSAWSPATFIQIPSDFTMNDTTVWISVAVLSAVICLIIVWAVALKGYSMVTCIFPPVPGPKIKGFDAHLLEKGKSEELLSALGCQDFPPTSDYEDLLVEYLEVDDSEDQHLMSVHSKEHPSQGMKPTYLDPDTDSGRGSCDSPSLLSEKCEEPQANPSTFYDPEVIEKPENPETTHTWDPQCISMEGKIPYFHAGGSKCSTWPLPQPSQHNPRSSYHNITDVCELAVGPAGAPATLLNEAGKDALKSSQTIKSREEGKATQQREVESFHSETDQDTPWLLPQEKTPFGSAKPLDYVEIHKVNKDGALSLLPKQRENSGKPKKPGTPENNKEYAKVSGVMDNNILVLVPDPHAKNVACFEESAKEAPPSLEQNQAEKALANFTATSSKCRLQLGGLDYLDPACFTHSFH", "assay": "FACS on HEK293/hPRLR cells"}, "[2]": {"biological_target": "T2, human PRLR on cells (endogenous on T47D, T47D#11, MCF7); introduced in HEK293/hPRLR/STAT5-Luc, 293/hPRLR, … (human, UniProt P16471 25-622)", "T2 construct": "no tag is stated for these lines; also called prolactin receptor", "T2 sequence": "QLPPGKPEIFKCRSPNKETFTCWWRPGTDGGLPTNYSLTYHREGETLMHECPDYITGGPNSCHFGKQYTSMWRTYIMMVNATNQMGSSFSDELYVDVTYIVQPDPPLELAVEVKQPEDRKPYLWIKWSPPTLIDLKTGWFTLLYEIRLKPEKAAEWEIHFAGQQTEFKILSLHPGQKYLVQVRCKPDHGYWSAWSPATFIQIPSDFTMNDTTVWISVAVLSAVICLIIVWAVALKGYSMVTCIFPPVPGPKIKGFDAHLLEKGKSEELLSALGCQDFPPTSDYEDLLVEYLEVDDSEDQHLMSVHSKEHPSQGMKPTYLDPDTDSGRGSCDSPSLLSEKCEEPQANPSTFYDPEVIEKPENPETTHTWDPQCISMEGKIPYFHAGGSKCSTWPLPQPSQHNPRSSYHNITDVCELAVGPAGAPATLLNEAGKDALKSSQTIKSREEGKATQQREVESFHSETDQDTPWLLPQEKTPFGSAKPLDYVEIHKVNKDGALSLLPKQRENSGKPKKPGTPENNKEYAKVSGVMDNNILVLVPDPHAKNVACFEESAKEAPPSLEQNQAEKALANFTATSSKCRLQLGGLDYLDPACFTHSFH", "assay": "imaging of alexa488 intensity on T47D cells", "protocol": "Briefly, 20,000 T47D cells were seeded in collagen coated 96 well plates. […] Cells were then incubated with alexa488 conjugated anti-hFc Fab secondary antibodies for 30 minutes on ice followed by two additional PBS washes. Antibodies were allowed to internalize for 1 h at 37° C. in internalization buffer (PBS+2% FBS) or remained at 4° C. Cells were fixed in 4% formaldehyde, nuclei were stained with DRAQ5 (Cell signaling), and images were acquired on the ImageXpress micro XL (Molecular Devices). Whole cell alexa488 intensity at 37° C. (Binding) and the alexa488 intensity in the intracellular vesicles at 37° C. (Internalization) were determined via Columbus image analysis software (PerkinElmer)."}, "[3]": {"biological_target": "T2, human PRLR on cells (endogenous on …)", "assay": "cell-based or functional assay"}, "[4]": {"biological_target": "T2, human PRLR on cells (endogenous on …)", "assay": "cell-based or functional assay", "remark": "listed apart in the source"}, "[5]": {"biological_target": "T3, monkey macaca fascicularis PRLR construct with an HA tag on HEK293/mfPRLR cells (macaca fascicularis, UniProt A0A2K5WXK1 25-619)", "T3 construct": "stably transfected into HEK293", "T3 sequence": "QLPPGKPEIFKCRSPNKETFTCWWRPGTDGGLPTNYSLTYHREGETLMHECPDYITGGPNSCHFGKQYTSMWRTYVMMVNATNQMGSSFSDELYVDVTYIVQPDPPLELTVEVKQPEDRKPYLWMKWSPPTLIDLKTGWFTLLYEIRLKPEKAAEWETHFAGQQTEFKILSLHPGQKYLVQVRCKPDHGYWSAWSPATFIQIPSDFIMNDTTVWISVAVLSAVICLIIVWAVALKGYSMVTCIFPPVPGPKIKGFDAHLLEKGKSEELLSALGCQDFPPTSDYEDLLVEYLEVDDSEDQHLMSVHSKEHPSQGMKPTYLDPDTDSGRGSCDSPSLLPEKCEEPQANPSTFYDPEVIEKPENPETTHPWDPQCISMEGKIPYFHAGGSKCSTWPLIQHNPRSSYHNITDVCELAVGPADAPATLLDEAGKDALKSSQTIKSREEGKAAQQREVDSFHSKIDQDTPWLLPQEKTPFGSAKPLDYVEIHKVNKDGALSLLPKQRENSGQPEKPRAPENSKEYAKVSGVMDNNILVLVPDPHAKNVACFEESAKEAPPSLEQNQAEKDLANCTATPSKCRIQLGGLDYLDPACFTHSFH", "assay": "FACS on HEK293/mfPRLR cells"}}, "data": [{"binder": "H1H6967N (antibody, human IgG1, V domains shown, also called H2M6967N) VH: EVQLVESGGDLVHPGRSLRLSCAASGFPFDEYAMHWVRQVPGKGLEWVSGISWSNNNIGYADSVKGRFTISRDNAKNSLYLQMNSLRPEDTAFYYCAKSGIFDSWGQGTLVTVSS VL: EIVMTQSPATLSVSPGERATLSCRASQSVSRDLAWYQQKPGQAPRLLIHGASTRATGIPARFSGSGSGAEFTLIISSLQSEDFAVYYCQQYNNWPLTFGGGTKVEIK", "values": [{"measurement": "FACS Cell Binding (Fold Above Background)", "setting": "[1]", "value": 38, "unit": "fold"}, {"measurement": "% Total Binding relative to Control I", "setting": "[2]", "value": 159, "unit": "%"}, {"measurement": "IC50 of Blocking 5 nM PRL [M] (STAT5-Luc reporter, HEK293/hPRLR/STAT5-Luc cells)", "setting": "[3]", "value": "7.68e-10", "unit": "M"}, {"measurement": "Percent Blocking at 100 nM Antibody (STAT5-Luc reporter)", "setting": "[3]", "value": 100, "unit": "%"}, {"measurement": "% Internalization relative to Control I (T47D cells, imaging)", "setting": "[4]", "value": 169, "unit": "%"}, {"measurement": "FACS Cell Binding (Fold Above Background)", "setting": "[5]", "value": 28, "unit": "fold"}]}, {"binder": "H1H6781P (antibody, human IgG1, V domains shown, human IgG1 Fc (H1H)) VH: EVQLVESGGDLVQPGESLRLSCTASGFTFNSYEMNWVRQAPGKGLEWVSYISSSGGTKYYVDSVKGRFTISRDNAKKSLYLQMNSLRADDTALYYCARLNGVDVFDIWGQGTMVTVSS VL: DIQMTQSPSSLSASVGDRVTITCRASQDIFNYLAWFQQKPGKVPELLISAASTLQSGVPSRFSGSGSGTYFTLTISSLQPEDIATYYCQRYNSAPLTFGGGTKVEIK", "values": [{"measurement": "FACS Cell Binding (Fold Above Background)", "setting": "[1]", "value": 37, "unit": "fold"}, {"measurement": "% Total Binding relative to Control I", "setting": "[2]", "value": 166, "unit": "%"}, {"measurement": "IC50 of Blocking 5 nM PRL [M] (STAT5-Luc reporter, HEK293/hPRLR/STAT5-Luc cells)", "setting": "[3]", "value": "2.7e-11", "unit": "M"}, {"measurement": "Percent Blocking at 100 nM Antibody (STAT5-Luc reporter)", "setting": "[3]", "value": 100, "unit": "%"}, {"measurement": "% Internalization relative to Control I (T47D cells, imaging)", "setting": "[4]", "value": 165, "unit": "%"}, {"measurement": "FACS Cell Binding (Fold Above Background)", "setting": "[5]", "value": 26, "unit": "fold"}]}, {"binder": "H1H6774P (antibody, human IgG1, V domains shown, human IgG1 Fc (H1H)) VH: EVQLVESGGGLAQPGGSLRLSCVASGFTFSTYWMSWVRQAPGKGLDWVGNIKQDGSEQNYVDSVRGRFTISRDNAKNSLFLQMNSLRAEDTGVYYCATLLTKGDYWGQGTLVTVSS VL: DIQMTQSPSSLSASVGDSVTITCRASQDISNYLDWFQQKPGKAPKSLIYAASILQGGVPSRFSGSGYGTDFTLTISSLQPEDFATYYCRQYKTYPFTFGPGTKVDIK", "values": [{"measurement": "FACS Cell Binding (Fold Above Background)", "setting": "[1]", "value": 1, "unit": "fold"}, {"measurement": "% Total Binding relative to Control I", "setting": "[2]", "value": 174, "unit": "%"}, {"measurement": "Percent Blocking at 100 nM Antibody (STAT5-Luc reporter)", "setting": "[3]", "value": 0, "unit": "%"}, {"measurement": "% Internalization relative to Control I (T47D cells, imaging)", "setting": "[4]", "value": 162, "unit": "%"}, {"measurement": "FACS Cell Binding (Fold Above Background)", "setting": "[5]", "value": 29, "unit": "fold"}]}, {"binder": "H1H6783P (antibody, human IgG1, V domains shown, human IgG1 Fc (H1H)) VH: QVQLQQSGPGLVKPSQTLSLTCAISGDSVSSNTFAWNWIRQSPSRGLEWLGRTYYRSKWYIDYAESVKSRITITPDTSKNQFSLQLNSVTPEDTALYYCAGGYTYAPRGAFDIWGQGTMVTVSS VL: not shown", "values": [{"measurement": "FACS Cell Binding (Fold Above Background)", "setting": "[1]", "value": 37, "unit": "fold"}, {"measurement": "% Total Binding relative to Control I", "setting": "[2]", "value": 166, "unit": "%"}, {"measurement": "Percent Blocking at 100 nM Antibody (STAT5-Luc reporter)", "setting": "[3]", "value": 59, "unit": "%"}, {"measurement": "% Internalization relative to Control I (T47D cells, imaging)", "setting": "[4]", "value": 161, "unit": "%"}, {"measurement": "FACS Cell Binding (Fold Above Background)", "setting": "[5]", "value": 27, "unit": "fold"}]}, {"binder": "H1H6792P (antibody, human IgG1, V domains shown, human IgG1 Fc (H1H)) VH: EVQLVESGGGLVQPGRSLRLSCAASGFTLDDHAVHWVRQAPGKGLEWVSGISWNSVYIDYADSVKGRFTIFRDNAKNSLYLQMNSLRAEDTAFYYCARDIEGARDYWGQGTLVTVSS VL: DIQMTQSPSSLSASVGDRVTITCRASQGIRNDLGWYQQKPGKAPKRLIYAASSLQSGVPSRFSGSGYGTEFTLTISSLQPEDFAPYYCLQHNSYPLTFGGGTKVEIK", "values": [{"measurement": "FACS Cell Binding (Fold Above Background)", "setting": "[1]", "value": 37, "unit": "fold"}, {"measurement": "% Total Binding relative to Control I", "setting": "[2]", "value": 111, "unit": "%"}, {"measurement": "IC50 of Blocking 5 nM PRL [M] (STAT5-Luc reporter, HEK293/hPRLR/STAT5-Luc cells)", "setting": "[3]", "value": "5.7e-10", "unit": "M"}, {"measurement": "Percent Blocking at 100 nM Antibody (STAT5-Luc reporter)", "setting": "[3]", "value": 100, "unit": "%"}, {"measurement": "% Internalization relative to Control I (T47D cells, imaging)", "setting": "[4]", "value": 156, "unit": "%"}, {"measurement": "FACS Cell Binding (Fold Above Background)", "setting": "[5]", "value": 28, "unit": "fold"}]}]}
